Molecular target: T1, Trifunctional enzyme (TFP), ECHA/ECHB, immunopurified from human macrophage extract (human (endogenous in THP-1), UniProt P40939 37-763; P55084 34-474)
T1 construct: also called immunopurified human TFP
Test: SPR; Biacore 3000; […]; 20 mM Tris-HCl pH 8.0, 50 mM NaCl, 5 mM EDTA, 0.005% P20, 1 mM DTT; […]
Settings: both partners purified

T1 sequence (P40939 37-763, chain 1 of 2): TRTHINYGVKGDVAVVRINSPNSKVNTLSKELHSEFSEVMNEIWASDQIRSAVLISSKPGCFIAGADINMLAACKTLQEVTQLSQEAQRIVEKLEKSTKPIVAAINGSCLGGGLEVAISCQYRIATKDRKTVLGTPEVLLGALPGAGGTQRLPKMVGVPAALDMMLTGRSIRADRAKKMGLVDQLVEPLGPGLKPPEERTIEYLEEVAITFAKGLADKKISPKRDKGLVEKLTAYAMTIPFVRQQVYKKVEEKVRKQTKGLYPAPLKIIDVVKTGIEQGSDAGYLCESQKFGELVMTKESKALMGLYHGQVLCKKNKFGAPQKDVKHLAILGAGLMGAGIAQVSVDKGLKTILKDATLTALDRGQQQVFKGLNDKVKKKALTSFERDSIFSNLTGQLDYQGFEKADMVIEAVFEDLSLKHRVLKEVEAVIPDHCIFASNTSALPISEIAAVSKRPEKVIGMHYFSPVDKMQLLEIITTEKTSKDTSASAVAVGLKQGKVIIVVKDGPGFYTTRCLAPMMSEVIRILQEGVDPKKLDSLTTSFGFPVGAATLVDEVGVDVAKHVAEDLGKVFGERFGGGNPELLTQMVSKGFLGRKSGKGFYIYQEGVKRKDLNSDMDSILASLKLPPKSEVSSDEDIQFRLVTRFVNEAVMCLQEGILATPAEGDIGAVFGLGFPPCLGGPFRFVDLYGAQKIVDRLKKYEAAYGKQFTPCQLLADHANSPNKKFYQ
T1 sequence (P55084 34-474, chain 2 of 2): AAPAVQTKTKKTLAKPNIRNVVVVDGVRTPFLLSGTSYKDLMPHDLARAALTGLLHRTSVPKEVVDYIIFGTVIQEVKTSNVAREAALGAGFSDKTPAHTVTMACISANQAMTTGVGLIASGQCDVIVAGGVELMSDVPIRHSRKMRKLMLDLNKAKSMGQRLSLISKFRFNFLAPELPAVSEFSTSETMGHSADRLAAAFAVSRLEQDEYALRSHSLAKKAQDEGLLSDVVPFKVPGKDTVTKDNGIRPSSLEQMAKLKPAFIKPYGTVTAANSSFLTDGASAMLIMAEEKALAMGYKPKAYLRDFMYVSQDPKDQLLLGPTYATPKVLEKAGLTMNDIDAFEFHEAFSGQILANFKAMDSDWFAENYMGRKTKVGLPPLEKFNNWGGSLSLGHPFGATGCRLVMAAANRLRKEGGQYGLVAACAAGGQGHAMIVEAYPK

B1: Mycobacterium tuberculosis protein tyrosine phosphatase PtpA wt (enzyme)
chain: MSDPLHVTFVCTGNICRSPMAEKMFAQQLRHRGLGDAVRVTSAGTGNWHVGSCADERAAGVLRAHGYPTDHRAAQVGTEHLAADLLVALDRNHARLLRQLGVEAARVRMLRSFDPRSGTHALDVEDPYYGDHSDFEEVFAVIESALPGLHDWVDERLARNGPS
Does B1 bind?
Result: binds

— PMC5390082 (Scientific Reports, 2015)
